Columns and labels:
[1] = system: HeLa Kyoto; test: solubility in G1/S (NP-40 vs SDS abundance) (log2 ratio); higher = more soluble; conditions: cell cycle stage: G1/S
[2] = system: HeLa Kyoto; test: melting temperature (median over replicates), in situ; higher = more thermally stable
[3] = system: HeLa Kyoto; test: solubility change mitosis vs G1/S (difference of NP-40 vs SDS log2 ratios) (log2 ratio difference); higher = more soluble in mitosis
[4] = system: HeLa Kyoto; test: thermal stability score vs G1/S (z-score of summed log2 fold changes over temperatures); higher = more thermally stable than in G1/S
[5] = cell cycle stage: early G1 (4.5 h after nocodazole release)
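Wherever melting temperature (median over replicates), in situ is given: HeLa Kyoto cells synchronized by double thymidine or nocodazole block, proteins quantified by TMT10plex mass spectrometry, three independent biological replicates.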
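Wherever solubility change mitosis vs G1/S (difference of NP-40 vs SDS log2 ratios) is given: synchronized HeLa Kyoto cells (double thymidine block for G1/S, nocodazole release for mitosis), protein amounts in NP-40 versus SDS lysates quantified by mass spectrometry, three biological replicates.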
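Wherever solubility in G1/S (NP-40 vs SDS abundance) is given: HeLa Kyoto cells arrested at G1/S by double thymidine block, proteins quantified by TMT10plex mass spectrometry in mild NP-40 versus SDS extracts, three biological replicates.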
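Wherever thermal stability score vs G1/S (z-score of summed log2 fold changes over temperatures) is given: synchronized HeLa Kyoto cells, proteins quantified by TMT10plex mass spectrometry, three biological replicates, mitosis taken 0.5 h after nocodazole release, G1/S directly after double thymidine block.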

| Sequence | solubility in G1/S (log2) [1] | melting temperature ([2]; cell cycle stage: G1/S) [°C] | melting temperature ([2]; cell cycle stage: mitosis) [°C] | solubility change mitosis (log2) [3] | thermal stability score [4, 5] | thermal stability score ([4]; cell cycle stage: mitosis) |
| --- | --- | --- | --- | --- | --- | --- |
| MSAQAQMRAMLDQLMGTSRDGDTTRQRIKFSDDRVCKSHLLNCCPHDVLSGTRMDLGECLKVHDLALRADYEIASKEQDFFFELDAMDHLQSFIADCDRRTEVAKKRLAETQEEISAEVAAKAERVHELNEEIGKLLAKVEQLGAEGNVEESQKVMDEVEKARAKKREAEEVYRNSMPASSFQQQKLRVCEVCSAYLGLHDNDRRLADHFGGKLHLGFIEIREKLEELKRVVAEKQEKRNQERLKRREEREREEREKLRRSRSHSKNPKRSRSREHRRHRSRSMSRERKRRTRSKSREKRHRHRSRSSSRSRSRSHQRSRHSSRDRSRERSKRRSSKERFRDQDLASCDRDRSSRDRSPRDRDRKDKKRSYESANGRSEDRRSSEEREAGEI [LUC7L2] | -0.803 | 48.6 | 50.7 | 0.251 | 2.1 | 3.71 |
| MRRAALRLCALGKGQLTPGRGLTQGPQNPKKQGIFHIHEVRDKLREIVGASTNWRDHVKAMEERKLLHSFLAKSQDGLPPRRMKDSYIEVLLPLGSEPELREKYLTVQNTVRFGRILEDLDSLGVLICYMHNKIHSAKMSPLSIVTALVDKIDMCKKSLSPEQDIKFSGHVSWVGKTSMEVKMQMFQLHGDEFCPVLDATFVMVARDSENKGPAFVNPLIPESPEEEELFRQGELNKGRRIAFSSTSLLKMAPSAEERTTIHEMFLSTLDPKTISFRSRVLPSNAVWMENSKLKSLEICHPQERNIFNRIFGGFLMRKAYELAWATACSFGGSRPFVVAVDDIMFQKPVEVGSLLFLSSQVCFTQNNYIQVRVHSEVASLQEKQHTTTNVFHFTFMSEKEVPLVFPKTYGESMLYLDGQRHFNSMSGPATLRKDYLVEP [ACOT9] | -0.111 | 52.9 | 53.7 | -0.0152 | -1.25 | 1.48 |
| MQVTLKTLQQQTFKIDIDPEETVKALKEKIESEKGKDAFPVAGQKLIYAGKILNDDTALKEYKIDEKNFVVVMVTKPKAVSTPAPATTQQSAPASTTAVTSSTTTTVAQAPTPVPALAPTSTPASITPASATASSEPAPASAAKQEKPAEKPAETPVATSPTATDSTSGDSSRSNLFEDATSALVTGQSYENMVTEIMSMGYEREQVIAALRASFNNPDRAVEYLLMGIPGDRESQAVVDPPQAASTGAPQSSAVAAAAATTTATTTTTSSGGHPLEFLRNQPQFQQMRQIIQQNPSLLPALLQQIGRENPQLLQQISQHQEHFIQMLNEPVQEAGGQGGGGGGGSGGIAEAGSGHMNYIQVTPQEKEAIERLKALGFPEGLVIQAYFACEKNENLAANFLLQQNFDED [RAD23B] | 0.0413 | 57 | 54.1 | 0.104 | -2.19 | -2.38 |
| MPSTDLLMLKAFEPYLEILEVYSTKAKNYVNGHCTKYEPWQLIAWSVVWTLLIVWGYEFVFQPESLWSRFKKKCFKLTRKMPIIGRKIQDKLNKTKDDISKNMSFLKVDKEYVKALPSQGLSSSAVLEKLKEYSSMDAFWQEGRASGTVYSGEEKLTELLVKAYGDFAWSNPLHPDIFPGLRKIEAEIVRIACSLFNGGPDSCGCVTSGGTESILMACKAYRDLAFEKGIKTPEIVAPQSAHAAFNKAASYFGMKIVRVPLTKMMEVDVRAMRRAISRNTAMLVCSTPQFPHGVIDPVPEVAKLAVKYKIPLHVDACLGGFLIVFMEKAGYPLEHPFDFRVKGVTSISADTHKYGYAPKGSSLVLYSDKKYRNYQFFVDTDWQGGIYASPTIAGSRPGGISAACWAALMHFGENGYVEATKQIIKTARFLKSELENIKGIFVFGNPQLSVIALGSRDFDIYRLSNLMTAKGWNLNQLQFPPSIHFCITLLHARKRVAIQFLKDIRESVTQIMKNPKAKTTGMGAIYGMAQTTVDRNMVAELSSVFLDSLYSTDTVTQGSQMNGSPKPH [SGPL1] | -0.0885 | 53.3 | 54.3 | -0.101 | -0.294 | 0.467 |
